Measurements reported in patent US20070178572A1, “Protein crystal structure” (priority 2003, published 2007).
Numbering of substitutions follows the chain as printed. Read-outs that look alike come from different tables or passages of the source.

B1: SET 7/9: human enzyme that specifically methylates lysine-4 of histone H3 (protein, UniProt Q8WTS6 1-366, looked up)
Histone-lysine …: MDSDDEMVEEAVEGHLDDDGLPHGFCTVTYSSTDRFEGNFVHGEKNGRGKFFFFDGSTLEGYYVDDALQGQGVYTYEDGGVLQGTYVDGELNGPAQEYDTDGRLIFKGQYKDNIRHGVCWIYYPDGGSLVGEVNEDGEMTGEKIAYVYPDERTALYGKFIDGEMIEGKLATLMSTEEGRPHFELMPGNSVYHFDKSTSSCISTNALLPDPYESERVYVAESLISSAGEGLFSKVAVGPNTVMSFYNGVRITHQEVDSRDWALNGNTLSLDEETVIDVPEPYNHVSKYCASLGHKANHSFTPNCIYDMFVHPRFGPIKCIRTLRAVEADEELTVAYGYDHSPPGKSGPEAPEWYQVELKAFQATQQK
B2: Y245>A: SET 7/9 histone methyltransferase with point mutation of Tyr-245 to alanine (protein, UniProt Q8WTS6 1-366, looked up, variant Y245A)
Histone-lysine …: B1 Histone-lysine … with Y245A

Columns and labels:
H3 20mer peptide = experiment: Analytical analysis of histone methylation (HPLC separation and MALDI of reaction products); type: biochemical, human; conditions: unmodified peptide and AdoMet, reaction driven essentially to completion
Experimental: The histone methyltransferase assay for analytical purposes was carried out under slightly different conditions than those described in Example 1.2. For analytical purposes the reaction was performed at 37° C. in 50 mM Tris-HCl, pH 8.0, 100 mM NaCl, 1 mM DTT, with 300 μM AdoMet (Fluka, Switzerland), 100 μM H3 20mer peptide ([…]), and with 1.5 μM enzyme. At desired time intervals an aliquot of the reaction was removed and quenched in 8 M urea and acidified with glacial acetic acid. The reaction products were separated by reverse phase HPLC (Jasco (UK) Ltd) on a Zorbax 300SB-C18 column (Rockland Technologies, Inc. USA) using a gradient from 0 to 40% acetonitrile in the presence of 0.05% trifluoroacetic acid at 55° C. Fractions from the peptide peak were analysed using a Reflex III MALDI time-of-flight mass spectrometer (Bruker Daltonik, GmbH, Germany) to obtain positive ion mass spectra.
The present inventors have further analysed the methylation reaction. Reaction mixtures were set up with unmodified peptide and AdoMet and conditions found where the reaction was driven essentially to completion. […] The reason for SET 7/9 acting as a mono-methyltransferase is readily apparent from the crystal structure now presented. The peptide used for crystallization was synthesised using mono-methylated lysine at position 4. […]

histone H3 peptide [1] = conditions: previously reported (Wilson et al, 2002); cited from earlier work
histone H3 peptide [2] = experiment: HMTase activity measurements (histone methyltransferase assay, [methyl-3H] AdoMet, scintillation counting); type: biochemical, human
Experimental: The methyltransferase activity of SET7/9 and the various mutant constructs described in the text were determined in a reaction volume of 20 μl containing 3 μM AdoMet supplemented with [methyl-^3H] AdoMet (4 μCi) (Amersham Biosciences, UK) and […] purified methylase in reaction buffer (50 mM Tris pH 8.5, 100 mm NaCl, 1 mM EDTA, 1 mM DTT) with 50 μM histone peptide (see below). Following incubation at 37° C. for 60 min the reaction was vacuum blotted onto membrane (Hybond-C, Amersham Biosciences, UK) washed and activity measured by scintillation counting.

Molecule	methylation state of reaction product (H3 20mer peptide)	HMTase activity (histone H3 peptide [1])	HMTase activity (histone H3 peptide [2]; mono-methylated Lys-4 substrate)	HMTase activity (histone H3 peptide [2]; unmodified lysine substrate)
B1	only mono-methylated peptide			
B2		dramatic reduction in HMTase activity	substantial activity	greatly reduced activity
